From patent US20250388652A1

Tests used:
[1] = molecular target: F protein mutant RSV-DS-Cav1-B with a DS-Cav1 structure before fusion (respiratory syncytial virus subtype B, strain 18537) (UniProt P13843)
[2] = molecular target: F protein mutant RSV-DS-Cav1-B with a DS-Cav1 structure before fusion (respiratory syncytial virus subtype B, strain 18537) (UniProt P13843); remark: listed apart in the source

anti-RSV monoclonal antibody Nirsevimab (MEDI8897), sequence (VH): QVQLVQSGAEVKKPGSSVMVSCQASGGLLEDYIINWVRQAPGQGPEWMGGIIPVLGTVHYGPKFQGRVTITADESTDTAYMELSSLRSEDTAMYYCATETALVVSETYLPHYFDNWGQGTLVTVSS
anti-RSV monoclonal antibody Nirsevimab (MEDI8897), sequence (VL): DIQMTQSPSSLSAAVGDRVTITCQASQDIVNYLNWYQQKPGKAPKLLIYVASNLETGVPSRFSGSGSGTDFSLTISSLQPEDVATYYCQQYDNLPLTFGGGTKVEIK
anti-RSV monoclonal antibody Clesrovimab (RB1), sequence (VH): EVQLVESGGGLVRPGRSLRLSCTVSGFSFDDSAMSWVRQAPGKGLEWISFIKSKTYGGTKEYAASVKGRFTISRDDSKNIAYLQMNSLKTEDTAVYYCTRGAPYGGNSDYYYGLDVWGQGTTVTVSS
anti-RSV monoclonal antibody Clesrovimab (RB1), sequence (VL): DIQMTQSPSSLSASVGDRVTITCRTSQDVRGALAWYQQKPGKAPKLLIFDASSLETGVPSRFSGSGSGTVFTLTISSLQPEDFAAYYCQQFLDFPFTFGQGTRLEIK

## anti-RSV monoclonal antibody Clesrovimab (RB1)
[1]
  Kd: 0.00895 nM
  koff: 8.21e-05 s⁻¹
  kon: 9.17e+06 M⁻¹ s⁻¹

## anti-RSV monoclonal antibody Nirsevimab (MEDI8897)
[1]
  Kd: 3.08 nM
  koff: 0.000333 s⁻¹
  kon: 108000 M⁻¹ s⁻¹
[2]
  EC50 (read off the curve): 10 nM
